# From patent US20090208538A1 (ROCKEFELLER UNIVERSITY, published 2009)
# B1: cdr2 418-426 TPPEYKALF (peptide)
# peptide: TPPEYKALF
# B2: cdr2 163-171 ELYDLRQHF (peptide)
# peptide: ELYDLRQHF
# B3: cdr2 172-180 VYDHVFAEK (peptide)
# peptide: VYDHVFAEK
# B4: cdr2 74-82 RQMNEQHAK (peptide)
# peptide: RQMNEQHAK
# B5: cdr2 240-248 TGAYRARAL (peptide)
# peptide: TGAYRARAL
# B6: cdr2 442-450 EQRTKYRSL (peptide)
# peptide: EQRTKYRSL
# B7: cdr2 300-308 ESHRKPLKR (peptide)
# peptide: ESHRKPLKR
# B8: cdr2 444-452 RTKYRSLSS (peptide)
# peptide: RTKYRSLSS
# B9: cdr2 236-244 QLGATGAYR (peptide)
# peptide: QLGATGAYR
# B10: cdr2 207-215 AQLSLERQK (peptide)
# peptide: AQLSLERQK
# B11: cdr2 154-162 PAPSFACLK (peptide)
# peptide: PAPSFACLK
# B12: cdr2 209-217 LSLERQKRV (peptide)
# peptide: LSLERQKRV
# B13: cdr2 432-440 CIKKTKQEI (peptide)
# peptide: CIKKTKQEI
# B14: cdr2 296-304 LTVPESHRK (peptide)
# peptide: LTVPESHRK
# B15: cdr2 196-204 EHLKKTVTM (peptide)
# peptide: EHLKKTVTM
# B16: cdr2 275-283 VPDSLYVPF (peptide)
# peptide: VPDSLYVPF
# B17: cdr2 225-233 LVLKENSEL (peptide)
# peptide: LVLKENSEL
# B18: cdr2 211-219 LERQKRVTM (peptide)
# peptide: LERQKRVTM
# B19: cdr2 317-325 SLAGSDIVK (peptide)
# peptide: SLAGSDIVK
# B20: cdr2 28-36 LQLAAELGK (peptide)
# peptide: LQLAAELGK
# B21: cdr2 427-435 KEIFSCIKK (peptide)
# peptide: KEIFSCIKK
# B22: cdr2 265-273 HPFVNGVEK (peptide)
# peptide: HPFVNGVEK
# B23: cdr2 205-213 LQAQLSLER (peptide)
# peptide: LQAQLSLER
# B24: cdr2 229-237 ENSELEQQL (peptide)
# peptide: ENSELEQQL
# B25: cdr2 37-45 TLLDRNTEL (peptide)
# peptide: TLLDRNTEL
# B26: cdr2 30-38 LAAELGKTL (peptide)
# peptide: LAAELGKTL
# B27: cdr2 355-363 ALKVKYEEL (peptide)
# peptide: ALKVKYEEL
# B28: cdr2 379-387 VQTSRAAAK (peptide)
# peptide: VQTSRAAAK
# B29: cdr2 331-339 CIRRAKAVK (peptide)
# peptide: CIRRAKAVK
# B30: cdr2 140-148 GQGRRSPGK (peptide)
# peptide: GQGRRSPGK
# Legend:
# HLA-B*0702 [1] = molecular target: HLA-B*0702 (human); assay: iTopia off-rate
# HLA-B*0702 [2] = molecular target: HLA-B*0702 (human); assay: iTopia affinity
# HLA-B*0702 [3] = molecular target: HLA-B*0702 (human); assay: iTopia net score
# HLA-A*2402 [4] = molecular target: HLA-A*2402 (human); assay: iTopia off-rate
# HLA-A*2402 [5] = molecular target: HLA-A*2402 (human); assay: iTopia net score;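 also: iScore from iTopia software combining peptide binding, affinity over a dilution series and off-rate after warming to body temperature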
# HLA-A*2402 [6] = molecular target: HLA-A*2402 (human); assay: iTopia affinity;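 also: peptide binding to HLA-A*2402 measured in iTopia kit format across eight serial peptide dilutions, ED50 derived from the resulting titration curve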
# HLA-B*0801 [7] = molecular target: HLA-B*0801 (human); assay: iTopia affinity
# HLA-A*0201 [8] = molecular target: T1, HLA-A*0201 (human); assay: iTopia off-rate;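 also: Half-life of peptide complexes with plate-bound HLA-A2, peptides loaded 18 h at 21 C, washed, then held at 37 C over several time points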
# T1 construct: also called HLA-A2.1; HLA A2.1
# HLA-A*0201 [9] = molecular target: T1, HLA-A*0201; assay: iTopia net score;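 also: combined score from peptide binding, ED₅₀ and half-life of peptide complexes with plate-bound HLA-A2 molecules, computed by a proprietary formula in iTopia software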
# HLA-A*0201 [10] = molecular target: T1, HLA-A*0201; assay: iTopia binding;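 also: each peptide tested for binding to HLA-A2 molecules immobilized on plates, using a commercial screening kit run per its supplied protocol and reagents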
# HLA-A*0201 [11] = molecular target: T1, HLA-A*0201; assay: iTopia affinity;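 also: peptide affinity for plate-bound HLA-A2 molecules (iTopia system), with ED50 derived from an eight-point serial peptide dilution series run under binding assay conditions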
# HLA-B*0801 [12] = molecular target: HLA-B*0801 (human); assay: iTopia net score
# HLA-A*0301 [13] = molecular target: HLA-A*0301 (human); assay: iTopia net score
# HLA-A*1101 [14] = molecular target: HLA-A*1101 (human); assay: iTopia net score
# HLA-A*1101 [15] = molecular target: HLA-A*1101 (human); assay: iTopia off-rate
# HLA-A*1101 [16] = molecular target: HLA-A*1101 (human); assay: iTopia affinity;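 also: affinity derived from a titration of eight serial peptide dilutions, each run under the same conditions as the binding screen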
# HLA-A*0301 [17] = molecular target: HLA-A*0301 (human); assay: iTopia affinity
# HLA-A*0301 [18] = molecular target: HLA-A*0301 (human); assay: iTopia off-rate
Binder,ED50 (HLA-B*0801 [7]) [µM],iScore (HLA-B*0801 [12]),iScore (HLA-A*0301 [13]),iScore (HLA-A*1101 [14]),t1/2 (HLA-A*1101 [15]),ED50 (HLA-A*1101 [16]) [µM],ED50 (HLA-A*0301 [17]) [µM],t1/2 (HLA-A*0301 [18]),other results
B1,,,,,,,,,t1/2 (HLA-B*0702 [1]): 1.26; ED50 (HLA-B*0702 [2]): 100 µM; iScore (HLA-B*0702 [3]): 0.027; t1/2 (HLA-A*2402 [4]): 0.46; iScore (HLA-A*2402 [5]): 0.084; ED50 (HLA-A*2402 [6]): 11 µM
B2,340,0.037,,,,,,,t1/2 (HLA-A*0201 [8]): 0.55; t1/2 (HLA-A*2402 [4]): 0.23; iScore (HLA-A*2402 [5]): 0.095; iScore (HLA-A*0201 [9]): 0.132; binding vs positive control (HLA-A*0201 [10]): > 30%; ED50 (HLA-A*0201 [11]): 2.7 µM; ED50 (HLA-A*2402 [6]): 3.3 µM
B3,,,0.048,0.146,0.7,8.8,25,0.36,t1/2 (HLA-A*2402 [4]): 1.65; iScore (HLA-A*2402 [5]): 0.165; ED50 (HLA-A*2402 [6]): 6.2 µM
B4,,,0.147,0.396,3.85,11,58,3.69,
B5,18,0.085,,,,,,,t1/2 (HLA-B*0702 [1]): 0.22; ED50 (HLA-B*0702 [2]): 5.7 µM; iScore (HLA-B*0702 [3]): 0.082
B6,15,0.16,,,,,,,t1/2 (HLA-B*0702 [1]): 1.59; ED50 (HLA-B*0702 [2]): 100 µM; iScore (HLA-B*0702 [3]): 0.031
B7,,,0.147,0.063,0.35,26,19,1.49,
B8,,,,,,,,,t1/2 (HLA-B*0702 [1]): 1.83; ED50 (HLA-B*0702 [2]): 73 µM; iScore (HLA-B*0702 [3]): 0.031
B9,,,0.122,0.038,0.2,27,15,0.92,
B10,,,0.075,0.271,1.4,5.7,25,0.97,
B11,,,0.122,,,,11,2.19,
B12,280,0.046,,,,,,,t1/2 (HLA-A*0201 [8]): 1.25; iScore (HLA-A*0201 [9]): 0.139; binding vs positive control (HLA-A*0201 [10]): > 30%; ED50 (HLA-A*0201 [11]): 8.4 µM
B13,240,0.054,,,,,,,
B14,,,0.128,0.558,4.59,4.8,26,1.53,
B15,130,0.065,,,,,,,
B16,,,,,,,,,t1/2 (HLA-B*0702 [1]): 0.58; ED50 (HLA-B*0702 [2]): 47 µM; iScore (HLA-B*0702 [3]): 0.068; t1/2 (HLA-A*2402 [4]): 1.26; iScore (HLA-A*2402 [5]): 0.116; ED50 (HLA-A*2402 [6]): 9.2 µM
B17,,,,,,,,,t1/2 (HLA-B*0702 [1]): 0.49; ED50 (HLA-B*0702 [2]): 34 µM; iScore (HLA-B*0702 [3]): 0.054; t1/2 (HLA-A*0201 [8]): 0.8; iScore (HLA-A*0201 [9]): 0.119; binding vs positive control (HLA-A*0201 [10]): > 30%; ED50 (HLA-A*0201 [11]): 7 µM
B18,140,0.037,,,,,,,
B19,,,0.14,0.283,0.74,2.1,11,0.88,
B20,,,0.086,0.194,1,7.9,15,1.12,
B21,,,0.231,0.392,3.74,7,13,5.82,
B22,,,0.05,,,,34,0.61,
B23,,,0.087,0.118,0.56,11,19,0.99,
B24,,,,,,,,,t1/2 (HLA-B*0702 [1]): 1.13; ED50 (HLA-B*0702 [2]): 93 µM; iScore (HLA-B*0702 [3]): 0.05
B25,360,0.045,,,,,,,t1/2 (HLA-A*2402 [4]): 1.39; iScore (HLA-A*2402 [5]): 0.08; ED50 (HLA-A*2402 [6]): 56 µM
B26,,,,,,,,,t1/2 (HLA-B*0702 [1]): 0.5; ED50 (HLA-B*0702 [2]): 33 µM; iScore (HLA-B*0702 [3]): 0.052
B27,84,0.099,,,,,,,t1/2 (HLA-A*0201 [8]): 0.8; t1/2 (HLA-A*2402 [4]): 0.38; iScore (HLA-A*2402 [5]): 0.076; iScore (HLA-A*0201 [9]): 0.107; binding vs positive control (HLA-A*0201 [10]): > 30%; ED50 (HLA-A*0201 [11]): 7 µM; ED50 (HLA-A*2402 [6]): 10 µM
B28,,,0.279,0.343,1.5,4.6,18,2.55,
B29,,,0.436,,,,14,6.47,
B30,,,0.258,0.633,2.8,2,7.8,1.64,
